# From the nanobody polyreactivity screen of Harvey et al. (2022)
# Assay: yeast display, Sf9 membrane polyspecificity reagent, FACS + sequencing; frameworks hold sequencing errors
# Method in brief: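 Nanobodies came from a synthetic yeast display library in Saccharomyces cerevisiae BJ5465, induced with galactose for 36–48 hours and stained for 1 hour at 4 °C with 10% biotinylated, detergent-solubilized Sf9 membrane reagent. Cells were enriched on streptavidin microbeads and then FACS-sorted, with low and high (top ~1%) gates set on anti-HA fluorescence for expression and streptavidin fluorescence for reagent binding. Each polyreactivity label reflects the gate a clone came from. Genes were amplified by colony PCR, sequenced by MiSeq 2 × 250 and filtered by CDR length.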
row,Sequence,polyreactivity (PSR sort gate)
1,QVQLVESGGGLVQAGGSLRLSCAASGRIFRGYARGWYRQAPGKEREFVAAITKNGGSTYYADSVKGRFTISRDNAKNTVYLQMNSLKPEDTAVYYCAVRAWDPYTGKSDYWGQGTQVTVSS,low polyreactivity
2,QVQLVESGGGLVQAGGSLRLSCAASGRIFRGYTMGWYRQAPGKERELVAAIRSGSRTNYADSVKGRFTISRDNAKNTVYLQMNSLKPEDTAVYYCAADSGYGRPYYYWGQGTQVTVSS,high polyreactivity
3,QVQLVESGGGLVQAGGSLRLSCAASGRIFRHYAMGWYRQAPGKVRELVAAIRWSGGSTYYADSVKGRFTISRDNAKNTVYLQMNSLKPADTAVYYCATRDAVGHRPSGPYQLYDYWGQGTQVTVSS,low polyreactivity
4,QVQLVESGGGLVQAGGSLRLSCAASGRIFRINAMGWYRQAPGKERELVASITSRAGSTYYADSVKGRFTISRDNAKNTVYLQMNSLKPEDTAVYYCAARSVYTYYRLDYWGQGTQVTVSS,high polyreactivity
5,QVQLVESGGGLVQAGGSLRLSCAASGRIFRIYGMGWYRQAPGKERELVADISIGGRTTYADSVKGRFTISRDNAKNTVYLQMNSLKPEDTAVYYCKTPYWYRIGQRLAWYDYWGQGTQVTVSS,low polyreactivity
6,QVQLVESGGGLVQAGGSLRLSCAASGRIFRKYAMGWYRQAPGKERELVAVINDRGGSTYYADSVKGRFTISRDNAKNTVYLQMNSLKPEDTAVYYCNATGPKKDTARYDYWGQGTQVTVSS,low polyreactivity
7,QVQLVESGGGLVQAGGSLRLSCAASGRIFRKYGMGWYRPAPGKERELVAAITGGGSTYYADSVKGRFTISRDNAKNTVYVQMNSLKPEDTAVYYCARGGYRWYPYVYVPSPFDYWGQGTQVTVSS,high polyreactivity
8,QVQLVESGGGLVQAGGSLRLSCAASGRIFRLYAMGWYRQAPGKERELVAAISKSGGSTYYADSVKGRFTISRDNAKNTVYLQMNSLKPEDTAVYYCAADYRTHGGYEGTFDYWGQGTQVTVSS,low polyreactivity
9,QVQLVESGGGLVQAGGSLRLSCAASGRIFRLYAMGWYRQAPGKERELVATITSGGTYYADSVKGRFTISRDNAKNTVYLQMNSLKPEDTAVYYFAAVVYPGYVGSQEYDYWGQGTQVTVSS,low polyreactivity
10,QVQLVESGGGLVQAGGSLRLSCAASGRIFRNNAMGWYRQATGKERELVATISSRGGSTYYADSVKGRFTISSDNAKNNVYLQMNSLKPEDTAVYYCNKRWLHWAGYDYWGQGTQVTVSS,high polyreactivity
11,QVQLVESGGGLVQAGGSLRLSCAASGRIFRPYAMGWYRQAPGKERELVASITRGGSTDYADSVKGRFTISRDNAKNTVYLQMNSLKPEDTAVYYCNKVWRFGYYGSYYWGQGTQVTVSS,high polyreactivity
12,QVQLVESGGGLVQAGGSLRLSCAASGRIFRPYVMGWYRQAPGKERELVAAISYRGSSTYYADSVKGRFTISRDNAKNTVYLQMNSLKPEDTAVYYCAAYPRVYWTKEYDYWGQGTQVTVSS,high polyreactivity
13,QVQLVESGGGLVQAGGSLRLSCAASGRIFRQYAMGLYRQAPGKERELVAAISRRGTSTYYADSVKGRFTISRDNAKNTVYLQMNSLKPEDTAVYYCAAGGVYSIYRTSRVGYDYWGQGTQVTVSS,high polyreactivity
14,QVQLVESGGGLVQAGGSLRLSCAASGRIFRRNAMGWYRQAPGKERELVASITRGGRTSYADSVKGRFTISRDNAKNTVYLQMNSLKPEDTAVYYCNARSYQSARFRGGYWGQGTQVTVSS,high polyreactivity
15,QVQLVESGGGLVQAGGSLRLSCAASGRIFRRSALGWSRQAPGKEREFVAAISSGGSTYYADSVKGRFTISRDNAKKYRLFTDEQPETGRYRGLLLRCVRYDVNLYDYWGHGTQVTVSS,low polyreactivity
16,QVQLVESGGGLVQAGGSLRLSCAASGRIFRRYAMGWYRQAHGKERELVAAITSGGRTYYADSVKGRFTISRDNAKNTVYLQMNSLKPEDTAVYYCAAKWTVGELDYWGQGTQVTVSS,high polyreactivity
17,QVQLVESGGGLVQAGGSLRLSCAASGRIFRRYAMGWYRQAPGKEREFVAAITKSGGSTYYADSVKGRFTISRDNAKNTVYLQMNSLKPEDTAVYDCNAYVIRALGYGGYDYWGQGTQVTVSS,high polyreactivity
